# Results: the supplement of paper PMC11316812
# ± gives the standard deviation of the averaged measurements.
# What was measured:
# [1] = tested on: MCF7; test: percentage of EdU-negative (G0-arrested) nuclei per well, 72 h; higher = more G0 arrest; conditions: reference: sequence is the full UniProt precursor, the tested protein was the secreted form or ectodomain
# [2] = tested on: hTERT-HMEC; test: as above; conditions: reference: sequence is the full UniProt precursor, the tested protein was the secreted form or ectodomain
# [3] = protein concentration 0.02075 µM
# [4] = protein concentration 0.2075 µM
# [5] = protein concentration 0.00914286 µM
# [6] = protein concentration 0.0914286 µM
# [7] = protein concentration 0.0194286 µM
# [8] = protein concentration 0.194286 µM
# [9] = protein concentration 0.03125 µM
# [10] = protein concentration 0.3125 µM
# [11] = protein concentration 0.0171429 µM
# [12] = protein concentration 0.171429 µM
# [13] = protein concentration 0.0225 µM
# 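Note: secreted proteins added to cultured cells, EdU pulse at the end, nuclei found by Hoechst imaging, EdU status from nuclear versus surrounding ring intensity ratio, PBS as neutral control.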
sequence,measurement,setting,value
MGTLPWLLAFFILGLQAWDTPTIVSRKEWGARPLACRALLTLPVAYIITDQLPGMQCQQQSVCSQMLRGLQSHSVYTIGWCDVAYNFLVGDDGRVYEGVGWNIQGLHTQGYNNISLGIAFFGNKIGSSPSPAALSAAEGLISYAIQKGHLSPRYIQPLLLKEETCLDPQHPVMPRKVCPNIIKRSAWEARETHCPKMNLPAKYVIIIHTAGTSCTVSTDCQTVVRNIQSFHMDTRNFCDIGYHFLVGQDGGVYEGVGWHIQGSHTYGFNDIALGIAFIGYFVEKPPNAAALEAAQDLIQCAVVEGYLTPNYLLMGHSDVVNILSPGQALYNIISTWPHFKH [Q96LB9],percentage of EdU-negative,[1]; [3],25.5 ± 4.8%
same,percentage of EdU-negative,[1]; [4],26.6 ± 2.1%
same,percentage of EdU-negative,[2]; [3],5.52 ± 0.69%
same,percentage of EdU-negative,[2]; [4],5.51 ± 0.12%
MDLWNLSWFLFLDALLVISGLATPENFDVDGGMDQDIFDINEGLGLDLFEGDIRLDRAQIRNSIIGEKYRWPHTIPYVLEDSLEMNAKGVILNAFERYRLKTCIDFKPWAGETNYISVFKGSGCWSSVGNRRVGKQELSIGANCDRIATVQHEFLHALGFWHEQSRSDRDDYVRIMWDRILSGREHNFNTYSDDISDSLNVPYDYTSVMHYSKTAFQNGTEPTIVTRISDFEDVIGQRMDFSDSDLLKLNQLYNCSSSLSFMDSCSFELENVCGMIQSSGDNADWQRVSQVPRGPESDHSNMGQCQGSGFFMHFDSSSVNVGATAVLESRTLYPKRGFQCLQFYLYNSGSESDQLNIYIREYSADNVDGNLTLVEEIKEIPTGSWQLYHVTLKVTKKFRVVFEGRKGSGASLGGLSIDDINLSETRCPHHIWHIRNFTQFIGSPNGTLYSPPFYSSKGYAFQIYLNLAHVTNAGIYFHLISGANDDQLQWPCPWQQATMTLLDQNPDIRQRMSNQRSITTDPFMTTDNGNYFWDRPSKVGTVALFSNGTQFRRGGGYGTSAFITHERLKSRDFIKGDDVYILLTVEDISHLNSTQIQLTPAPSVQDLCSKTTCKNDGVCTVRDGKAECRCQSGEDWWYMGERCEKRGSTRDTIVIAVSSTVAVFALMLIITLVSVYCTRKKYRERMSSNRPNLTPQNQHAF,percentage of EdU-negative,[1]; [5],24.7 ± 3.1%
same,percentage of EdU-negative,[1]; [6],27.5 ± 1.1%
same,percentage of EdU-negative,[2]; [5],6.01 ± 0.12%
same,percentage of EdU-negative,[2]; [6],6.74 ± 0.94%
MGVAARPPALRHWFSHSIPLAIFALLLLYLSVRSLGARSGCGPRAQPCVPGETAPFQVRQESGTLEAPERKQPPCLGPRGMLGRMMRRFHASLKPEGDVGLSPYLAGWRALVEFLTPLGSVFAFATREAFTKVTDLEARVHGPDAEHYWSLVAMAAWERRAGLLEQPGAAPRDPTRSSGSRTLLLLHRALRWSQLCLHRVATGALGGPDAGVQCSDAYRAALGPHHPWLVRQTARLAFLAFPGRRRLLELACPGATEAEARAALVRAAGTLEDVYNRTQSLLAERGLLQLA [A6NH11],percentage of EdU-negative,[1]; [7],23.4 ± 0.51%
same,percentage of EdU-negative,[1]; [8],25.5 ± 2.7%
same,percentage of EdU-negative,[2]; [7],5.02 ± 1.8%
same,percentage of EdU-negative,[2]; [8],5.53 ± 0.54%
MALSFSLLMAVLVLSYKSICSLGCDLPQTHSLGNRRALILLAQMGRISHFSCLKDRYDFGFPQEVFDGNQFQKAQAISAFHEMIQQTFNLFSTKDSSAAWDETLLDKFYIELFQQLNDLEACVTQEVGVEEIALMNEDSILAVRKYFQRITLYLMGKKYSPCAWEVVRAEIMRSFSFSTNLQKGLRRKD,percentage of EdU-negative,[1]; [9],47.8 ± 1.4%
same,percentage of EdU-negative,[1]; [10],49.2 ± 3.4%
same,percentage of EdU-negative,[2]; [9],11.7 ± 1.5%
same,percentage of EdU-negative,[2]; [10],18.9 ± 0.54%
MTSHYVIAIFALMSSCLATAGPEPGALCELSPVSASHPVQALMESFTVLSGCASRGTTGLPQEVHVLNLRTAGQGPGQLQREVTLHLNPISSVHIHHKSVVFLLNSPHPLVWHLKTERLATGVSRLFLVSEGSVVQFSSANFSLTAETEERNFPHGNEHLLNWARKEYGAVTSFTELKIARNIYIKVGEDQVFPPKCNIGKNFLSLNYLAEYLQPKAAEGCVMSSQPQNEEVHIIELITPNSNPYSAFQVDITIDIRPSQEDLEVVKNLILILKCKKSVNWVIKSFDVKGSLKIIAPNSIGFGKESERSMTMTKSIRDDIPSTQGNLVKWALDNGYSPITSYTMAPVANRFHLRLENNAEEMGDEEVHTIPPELRILLDPGALPALQNPPIRGGEGQNGGLPFPFPDISRRVWNEEGEDGLPRPKDPVIPSIQLFPGLREPEEVQGSVDIALSVKCDNEKMIVAVEKDSFQASGYSGMDVTLLDPTCKAKMNGTHFVLESPLNGCGTRPRWSALDGVVYYNSIVIQVPALGDSSGWPDGYEDLESGDNGFPGDMDEGDASLFTRPEIVVFNCSLQQVRNPSSFQEQPHGNITFNMELYNTDLFLVPSQGVFSVPENGHVYVEVSVTKAEQELGFAIQTCFISPYSNPDRMSHYTIIENICPKDESVKFYSPKRVHFPIPQADMDKKRFSFVFKPVFNTSLLFLQCELTLCTKMEKHPQKLPKCVPPDEACTSLDASIIWAMMQNKKTFTKPLAVIHHEAESKEKGPSMKEPNPISPPIFHGLDTLTVMGIAFAAFVIGALLTGALWYIYSHTGETAGRQQVPTSPPASENSSAAHSIGSTQSTPCSSSSTA,percentage of EdU-negative,[1]; [11],24.6 ± 1.9%
same,percentage of EdU-negative,[1]; [12],23.7 ± 2.4%
same,percentage of EdU-negative,[2]; [11],4.94 ± 0.63%
same,percentage of EdU-negative,[2]; [12],5.484 ± 0.021%
MKGILVAGITAVLVAAVESLSCVQCNSWEKSCVNSIASECPSHANTSCISSSASSSLETPVRLYQNMFCSAENCSEETHITAFTVHVSAEEHFHFVSQCCQGKECSNTSDALDPPLKNVSSNAECPACYESNGTSCHGKPWKCYEEEQCVFLVAELKNDIESKSLVLKGCSNVSNATCQFLSGENKTLGGVIFRKFECANVNSLTPTSAPTTSHNVGSKASLYLLALASLLLRGLLP [Q6UX82],percentage of EdU-negative,[1]; [13],26.8 ± 1.8%
same,percentage of EdU-negative,[1]; protein concentration 0.225 µM,24 ± 2.7%
same,percentage of EdU-negative,[2]; [13],4.63 ± 0.18%
same,percentage of EdU-negative,[2]; protein concentration 0.225 µM,5.88 ± 0.78%
MKFTTLLFLAAVAGALVYAEDASSDSTGADPAQEAGTSKPNEEISGPAEPASPPETTTTAQETSAAAVQGTAKVTSSRQELNPLKSIVEKSILLTEQALAKAGKGMHGGVPGGKQFIENGSEFAQKLLKKFSLLKPWA [Q9GZZ8],percentage of EdU-negative,[1]; [13],25.6 ± 1.3%
same,percentage of EdU-negative,[1]; protein concentration 0.225 µM,24.5 ± 0.39%
same,percentage of EdU-negative,[2]; [13],4.93 ± 0.13%
same,percentage of EdU-negative,[2]; protein concentration 0.225 µM,5.83 ± 0.8%
